Here are results for one molecule from patent US20100146651, “MEGANUCLEASE VARIANTS CLEAVING A DNA TARGET SEQUENCE FROM THE HPRT GENE AND USES THEREOF” (CELLECTIS, published 2010).

Assay in all cases: cell_activity; CHO chromosomal reporter, maximum
Series [1] deals with T1, HprCH3.3/HprCH3.4 G19S heterodimer (synthetic, UniProt P05725;P05725 SEQ:1-163,SEQ:1-163, G19S in second chain).
T1 sequence 1: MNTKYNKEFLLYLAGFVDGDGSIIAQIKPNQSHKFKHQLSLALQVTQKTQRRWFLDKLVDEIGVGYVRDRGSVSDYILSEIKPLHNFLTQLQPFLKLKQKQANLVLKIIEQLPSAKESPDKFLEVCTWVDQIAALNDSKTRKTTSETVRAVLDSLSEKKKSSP
T1 sequence 2: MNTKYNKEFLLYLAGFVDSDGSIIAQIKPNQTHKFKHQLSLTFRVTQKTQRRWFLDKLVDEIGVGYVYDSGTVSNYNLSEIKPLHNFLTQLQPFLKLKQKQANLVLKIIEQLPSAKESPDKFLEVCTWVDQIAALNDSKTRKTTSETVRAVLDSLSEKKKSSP
From the text:
(§1) To evaluate the cleavage activity of the original and G19S derived mutants a chromosomal reporter system in CHO cells was used (FIG. 20). In this system a single-copy LacZ gene driven by the CMV promoter is interrupted by the HprCH3 site and is thus non-functional. The transfection of the cell line with CHO expression plasmids for HprCH3.3/HprCH3.4 and a LacZ repair plasmid allows the restoration of a functional LacZ gene by homologous recombination. It has previously been shown that double-strand breaks can induce homologous recombination; therefore the frequency with which the LacZ gene is repaired is indicative of the cleavage efficiency of the genomic HprCH3 target site.
(§2) CHO cell lines harbouring the reporter system were seeded at a density of 2×10⁵ cells per 10 cm dish in complete medium (Kaighn's modified F-12 medium (F12-K), supplemented with 2 mM L-glutamine, penicillin (100 UI/ml), streptomycin (100 μg/ml), amphotericin B (Fongizone) (0.25 μg/ml) (INVITROGEN-LIFE SCIENCE) and 10% FBS (SIGMA-ALDRICH CHIMIE). The next day, cells were transfected with Polyfect transfection reagent (QIAGEN). Briefly, 2 μg of lacz repair matrix vector was co-transfected with various amounts of meganucleases expression vectors. After 72 hours of incubation at 37° C., cells were fixed in 0.5% glutaraldehyde at 4° C. for 10 min, washed twice in 100 mM phosphate buffer with 0.02% NP40 and stained with the following staining buffer (10 mM Phosphate buffer, 1 mM MgCl₂, 33 mM K hexacyanoferrate (III), 33 mM K hexacyanoferrate (II), 0.1% (v/v) X-Gal). After, an overnight incubation at 37° C., plates were examined under a light microscope and the number of LacZ positive cell clones counted. The frequency of LacZ repair is expressed as the number of LacZ+ foci divided by the number of transfected cells (5×10⁵) and corrected by the transfection efficiency.

Series [2] addresses T2, HprCH3.3 G19S/HprCH3.4 heterodimer (synthetic, UniProt P05725;P05725 SEQ:1-163,SEQ:1-163, G19S in first chain).
T2 sequence 1: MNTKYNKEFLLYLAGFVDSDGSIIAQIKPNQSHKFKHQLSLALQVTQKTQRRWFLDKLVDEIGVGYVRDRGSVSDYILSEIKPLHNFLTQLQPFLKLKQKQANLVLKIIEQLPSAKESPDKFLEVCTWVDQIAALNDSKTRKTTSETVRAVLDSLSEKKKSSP
T2 sequence 2: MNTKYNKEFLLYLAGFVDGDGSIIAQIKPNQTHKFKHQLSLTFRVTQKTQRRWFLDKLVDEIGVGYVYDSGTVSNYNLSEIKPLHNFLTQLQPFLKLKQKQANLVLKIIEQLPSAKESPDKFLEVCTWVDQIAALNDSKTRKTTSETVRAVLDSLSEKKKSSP
From the text: as §1, §2

The target of series [3] is T3, HprCH3.3/HprCH3.4 heterodimer (KNSHQS/QRRDI/42A43L + KNTHQS/RYSNN/72T) (synthetic, UniProt P05725;P05725 SEQ:1-163,SEQ:1-163).
T3 chain 1: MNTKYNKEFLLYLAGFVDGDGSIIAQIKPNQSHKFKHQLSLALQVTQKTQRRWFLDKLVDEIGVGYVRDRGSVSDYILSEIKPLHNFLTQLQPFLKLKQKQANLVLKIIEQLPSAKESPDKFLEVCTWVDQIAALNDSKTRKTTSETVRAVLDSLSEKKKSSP
T3 chain 2: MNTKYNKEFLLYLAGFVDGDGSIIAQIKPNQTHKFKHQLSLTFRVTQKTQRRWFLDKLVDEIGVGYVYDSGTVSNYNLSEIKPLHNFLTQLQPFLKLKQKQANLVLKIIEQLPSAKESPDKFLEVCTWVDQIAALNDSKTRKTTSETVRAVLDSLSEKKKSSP
From the text: as §1, §2

B1: HprCH3 (dsDNA)
DNA 1: CGAGATGTCATGAAAGAGATGG
DNA 2: CCATCTCTTTCATGACATCTCG
For B1, the activity in series [1] was determined as 0.012 LacZ repair frequency; in series [2] it was 0.0115 LacZ repair frequency; in series [3] it was 0.002 LacZ repair frequency.
